Assay [1] deals with HeV and NiV F and G envelope glycoproteins (on effector cells). The assay is described as follows: cell-based or functional assay.
The target is the same in assay [2]. The assay is described as follows: cell-based or functional assay. The source holds these as a separate data set.
The target in the next assay is T1, B4ECv3 (human, UniProt P54760 16-537).
T1 construct: also called B4ECv3 protein
T1 sequence: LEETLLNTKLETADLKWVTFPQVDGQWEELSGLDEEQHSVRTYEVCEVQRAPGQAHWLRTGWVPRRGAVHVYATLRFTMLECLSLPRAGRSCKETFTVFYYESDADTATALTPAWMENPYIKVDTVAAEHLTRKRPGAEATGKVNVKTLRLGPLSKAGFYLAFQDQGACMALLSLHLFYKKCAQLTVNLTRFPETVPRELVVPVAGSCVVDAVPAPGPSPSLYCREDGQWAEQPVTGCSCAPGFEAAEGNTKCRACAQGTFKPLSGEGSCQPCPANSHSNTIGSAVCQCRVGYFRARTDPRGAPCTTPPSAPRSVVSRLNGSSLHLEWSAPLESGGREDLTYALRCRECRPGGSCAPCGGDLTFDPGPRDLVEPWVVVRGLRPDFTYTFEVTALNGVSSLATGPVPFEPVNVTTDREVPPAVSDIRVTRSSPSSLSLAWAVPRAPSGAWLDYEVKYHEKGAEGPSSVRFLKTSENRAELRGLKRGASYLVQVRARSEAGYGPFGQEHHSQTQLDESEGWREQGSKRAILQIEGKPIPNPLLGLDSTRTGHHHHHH
As to the kind of experiment: biochemical assays; B4ECv3 on Ni-NTA agarose, 50 nM B2-AP, PNPP colorimetry.

Data on seven molecules can be found in patent US20070218061A1 (VASGENE THERAPEUTICS, published 2007).

Like-named read-outs stand apart in the source and are kept apart here.

In the case of “Bovine Serum Albumin (from UniProt P02769 25-607)”, in assay [1], the % fusion (cell fusion assay), 0.1 µg/ml inhibitor was 112%; the % fusion (cell fusion assay), 1.0 µg/ml inhibitor came out at 112%; the % fusion (cell fusion assay), 10 µg/ml inhibitor was found to be 124%; the % fusion (cell fusion reporter gene assay, beta-Gal), 10 µg/ml protein was determined as 126%.
Regarding “human EphrinB2EC-Human serum albumin fusion protein (from UniProt P52799 28-229)”, in assay [1], the % fusion (cell fusion assay), 0.1 µg/ml inhibitor came out at 85.3%; the % fusion (cell fusion assay), 1.0 µg/ml inhibitor stood at 115%; the % fusion (cell fusion assay), 10 µg/ml inhibitor worked out at 64%; the % fusion (cell fusion reporter gene assay, beta-Gal), 10 µg/ml protein came out at 54.8%.
As for “Murine EphrinB2-Ec-Fc (from UniProt P52800 29-232) (Fc fusion)”, in assay [1], the % fusion (cell fusion assay), 0.1 µg/ml inhibitor turned out to be 70.7%; the % fusion (cell fusion assay), 1.0 µg/ml inhibitor was 1.87%; the % fusion (cell fusion assay), 10 µg/ml inhibitor came out at 2.93%; the % fusion (cell fusion reporter gene assay, beta-Gal), 10 µg/ml protein was found to be 8.33%.
Taken in the same sequence, the figures for “Inactivated Human EphrinB2-Ec (from UniProt P52799 28-225) (ligand)” were 103%, 104%, 77.3% and 83.3%.

B1: Murine EphrinA2-EC-Fc (Fc fusion)
chain: RNEDPARANADRYAVYWNRSNPRFQVSAVGDGGGYTVEVSINDYLDIYCPHYGAPLPPAERMERYILYMVNGEGHASCDHRQRGFKRWECNRPAAPGGPLKFSEKFQLFTPFSLGFEFRPGHEYYYISATPPNLVDRPCLRLKVYVRPTNETLYEAPEPIFTSN
On to B1, for which, in assay [2], the % fusion (cell fusion assay), 0.1 µg/ml inhibitor stood at 81.3%; the % fusion (cell fusion assay), 1.0 µg/ml inhibitor stood at 104%; the % fusion (cell fusion assay), 10 µg/ml inhibitor is 112%; the % fusion (cell fusion reporter gene assay, beta-Gal), 10 µg/ml protein stood at 117%.

B2: Murine EphrinB1-EC-Fc (Fc fusion)
chain: ATPLAKNLEPVSWSSLNPKFLSGKGLVIYPKIGDKLDIICPRAEAGRPYEYYKLYLVRPEQAAACSTVLDPNVLVTCNKPHQEIRFTIKFQEFSPNYMGLEFKKYHDYYITSTSNGSLEGLENREGGVCRTRTMKIVMKVGQDPNAVTPEQLTTSRPSKESDNTVKTATQAPGRGSQGDSDGKHETVNQEEKSGPGAGGGGSGDSDSFFNSK
Turning to B2, in assay [2], the % fusion (cell fusion assay), 0.1 µg/ml inhibitor amounted to 109%; the % fusion (cell fusion assay), 1.0 µg/ml inhibitor is 133%; the % fusion (cell fusion assay), 10 µg/ml inhibitor was 147%; the % fusion (cell fusion reporter gene assay, beta-Gal), 10 µg/ml protein came out at 140%.

B3: EphrinB2EC-AP from pAPTag2 (ligand)
chain: IVLEPIYWNSSNSKFLPGQGLVLYPQIGDKLDIICPKVDSKTVGQYEYYKVYMVDKDQADRCTIKKENTPLLNCAKPDQDIKFTIKFQEFSPNLWGLEFQKNKDYYIISTSNGSLEGLDNQEGGVCQTRAMKILMKVGQDASSAGSTRNKDPTRRPELEAGTNGRSSTTSPFVKPNPGSSTDGNSAGHSGNNILGSEGSSGIIPVEEENPDFWNREAAEALGAAKKLQPAQTAAKNLIIFLGDGMGVSTVTAARILKGQKKDKLGPEIPLAMDRFPYVALSKTYNVDKHVPDSGATATAYLCGVKGNFQTIGLSAAARFNQCNTTRGNEVISVMNRAKKAGKSVGVVTTTRVQHASPAGTYAHTVNRNWYSDADVPASARQEGCQDIATQLISNMDIDVILGGGRKYMFPMGTPDPEYPDDYSQGGTRLDGKNLVQEWLAKRQGARYVWNRTELMQASLDPSVTHLMGLFEPGDMKYEIHRDSTLDPSLMEMTEAALRLLSRNPRGFFLFVEGGRIDHGHHESRAYRALTETIMFDDAIERAGQLTSEEDTLSLVTADHSHVFSFGGYPLRGSSIFGLAPGKARDRKAYTVLLYGNGPGYVLKDGARPDVTESESGSPEYRQQSAVPLDEETHAGEDVAVFARGPQAHLVHGVQEQTFIAHVMAFAACLEPYTACDLAPPAGTTDAAHPG
notes: also called B2-AP; B2ECAP reagent
Take B3: the binding result in the assay with B4ECv3 is “binds”.
